Data on one molecule can be found in patent US20230174640A1 (VITAERIS, published 2023).

In this test the target is T1, cynomolgus monkey IL-6 (cynomolgus monkey, UniProt P79341 28-212, limits assumed).
T1 sequence (looked up): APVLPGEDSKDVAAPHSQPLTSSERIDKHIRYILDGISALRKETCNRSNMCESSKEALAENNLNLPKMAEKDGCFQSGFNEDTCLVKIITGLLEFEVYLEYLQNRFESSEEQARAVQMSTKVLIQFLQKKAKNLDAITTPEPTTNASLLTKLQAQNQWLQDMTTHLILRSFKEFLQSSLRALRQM
Briefly: tissue cross-reactivity study, cynomolgus monkey tissues.

B1: clazakizumab (antibody, human IgG1, kappa, N297A, V domains shown)
VH: EVQLVESGGGLVQPGGSLRLSCAASGFSLSNYYVTWVRQAPGKGLEWVGIIYGSDETAYATSAIGRFTISRDNSKNTLYLQMNSLRAEDTAVYYCARDDSSDWDAKFNLWGQGTLVTVSS
VL: AIQMTQSPSSLSASVGDRVTITCQASQSINNELSWYQQKPGKAPKLLIYRASTLASGVPSRFSGSGSGTDFTLTISSLQPDDFATYYCQQGYSLRNIDNAFGGGTKVEIKR
notes: Humanized IgG1 monoclonal antibody; also called anti-IL-6 mAb clazakizumab
In the case of B1, the binding result is on record as “binds”.
